According to PMC10272835, “Exploration of T cell immune responses by expression of a dominant-negative SHP1 and SHP2” (Frontiers in Immunology, 2023):

B1: HVEM: inhibitory ligand of BTLA expressed on SupT1-GD2 cells (protein, UniProt Q92956 39-283, looked up)
Tumor necrosis factor …: LPSCKEDEYPVGSECCPKCSPGYRVKEACGELTGTVCEPCPPGTYIAHLNGLSKCLQCQMCDPAMGLRASRNCSRTENAVCGCSPGHFCIVQDGDHCAACRAYATSSPGQRVQKGGTESQDTLCQNCPPGTFSPNGTLEECQHQTKCSWLVTKAGAGTSSSHWVWWFLSGSLVIVIVCSTVGLIICVKRRKPRGDVVKVIVSVQRKRQEAEGEATVIEALQAPPDVTTVAVEETIPSFTGRSPNH
B2: CD155: inhibitory ligand of TIGIT expressed on SupT1-GD2 cells (protein, UniProt P15151 21-417, looked up)
Poliovirus receptor: WPPPGTGDVVVQAPTQVPGFLGDSVTLPCYLQVPNMEVTHVSQLTWARHGESGSMAVFHQTQGPSYSESKRLEFVAARLGAELRNASLRMFGLRVEDEGNYTCLFVTFPQGSRSVDIWLRVLAKPQNTAEVQKVQLTGEPVPMARCVSTGGRPPAQITWHSDLGGMPNTSQVPGFLSGTVTVTSLWILVPSSQVDGKNVTCKVEHESFEKPQLLTVNLTVYYPPEVSISGYDNNWYLGQNEATLTCDARSNPEPTGYNWSTTMGPLPPFAVAQGAQLLIRPVDKPINTTLICNVTNALGARQAELTVQVKEGPPSEHSGISRNAIIFLVLGILVFLILLGIGIYFYWSKCSREVLWHCHLCPSSTEHASASANGHVSYSAVSRENSSSQDPQTEGTR

Tested on: SupT1-GD2 cells
Assay: Effect of inhibitory ligand expression on GD2 CAR cytotoxicity
Format: cell-based
Conditions: ligand expressed on SupT1-GD2, E:T 1:4 and 1:8, 6 days
Protocol: Transduced T cells were depleted of CD56 cells using the EasySep Human CD56 positive selection kit (Stemcell Technologies; 17855) and rested for 24 hours. Transduced cells were co-cultured with target cells at the indicated effector: target (E:T) ratios with target cells remaining constant at the indicated number of target cells/co-culture. At the end of the co-culture period target cells were enumerated by flow cytometry and cytotoxicity calculated as a percentage of the number of target cells recovered from co-cultures with non-transduced (NT) T cells.
Figure 3 Interaction of dSHP2 with immunoinhibitory T cell receptors. (A-E) Binding of dSHP2 to phosphorylated peptides derived from the endodomains of immunoinhibitory T cell receptors. Plates were coated with phosphorylated or non-phosphorylated peptide at the indicated concentration and the purified, His-tagged SH2 domains of dSHP2 were allowed to bind overnight. Binding was measured through detection of the His tag. (F) Effect of inhibitory ligand expression on target cells on CAR T cytotoxicity. […] Supernatants were harvested from these co-cultures and levels of IFNγ measured by ELISA (I). […] Statistical significance was measured by two-way ANOVA. […]

Row | Molecule | effect of target cell ligand expression on CAR T cytotoxicity
1 | B1 | mild enhancement of CAR T cytotoxicity
2 | B2 | mild enhancement of CAR T cytotoxicity
